Measured values taken from patent publication US20150344570A1 (published 2015).

T1: FcγRIIb extracellular domain with C-terminal His tag (human, UniProt P31994 43-217)
T1 construct: extracellular domain; Soluble receptor used as analyte in Biacore; also called FcgRIIb
T1 sequence (looked up): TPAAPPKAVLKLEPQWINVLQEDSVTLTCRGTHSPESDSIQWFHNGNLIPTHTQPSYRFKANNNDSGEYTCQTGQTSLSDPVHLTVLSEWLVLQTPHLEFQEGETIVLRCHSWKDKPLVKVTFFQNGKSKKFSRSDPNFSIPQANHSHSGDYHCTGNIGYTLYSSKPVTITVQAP

B1: GpH7-A5/GpH7-B3 variant A330_05P/GpL16-k0 (antibody, human IgG1, kappa)
heavy 1: not shown
heavy 2: not shown
light: DIVMTQSPLSLPVTPGEPASISCQASESLVHSNRNTYLHWYLQKPGQSPQLLIYKVSNRFSGVPDRFSGSGSGTDFTLKISRVEAEDVGVYYCSQNTHVPPTFGQGTKVEIERTVAAPSVFIFPPSDEQLKSGTASVVCLLNNFYPREAKVQWKVDNALQSGNSQESVTEQDSKDSTYSLSSTLTLSKADYEKHKVYACEVTHQGLSSPVTKSFNRGEC
notes: Heterodimerized IgG1, mutation in the GpH7-B3 chain only; also called He Ab
B2: GpH7-A5/GpH7-B3 variant N325_04F/GpL16-k0 (antibody, human IgG1, kappa)
heavy 1: not shown
heavy 2: not shown
light: DIVMTQSPLSLPVTPGEPASISCQASESLVHSNRNTYLHWYLQKPGQSPQLLIYKVSNRFSGVPDRFSGSGSGTDFTLKISRVEAEDVGVYYCSQNTHVPPTFGQGTKVEIERTVAAPSVFIFPPSDEQLKSGTASVVCLLNNFYPREAKVQWKVDNALQSGNSQESVTEQDSKDSTYSLSSTLTLSKADYEKHKVYACEVTHQGLSSPVTKSFNRGEC
notes: as for B1
B3: GpH7-A5/GpH7-B3 variant L328_06M/GpL16-k0 (antibody, human IgG1, kappa)
heavy 1: not shown
heavy 2: not shown
light: DIVMTQSPLSLPVTPGEPASISCQASESLVHSNRNTYLHWYLQKPGQSPQLLIYKVSNRFSGVPDRFSGSGSGTDFTLKISRVEAEDVGVYYCSQNTHVPPTFGQGTKVEIERTVAAPSVFIFPPSDEQLKSGTASVVCLLNNFYPREAKVQWKVDNALQSGNSQESVTEQDSKDSTYSLSSTLTLSKADYEKHKVYACEVTHQGLSSPVTKSFNRGEC
notes: as for B1
B4: GpH7-A5/GpH7-B3 variant N325_08L/GpL16-k0 (antibody, human IgG1, kappa)
heavy 1: not shown
heavy 2: not shown
light: DIVMTQSPLSLPVTPGEPASISCQASESLVHSNRNTYLHWYLQKPGQSPQLLIYKVSNRFSGVPDRFSGSGSGTDFTLKISRVEAEDVGVYYCSQNTHVPPTFGQGTKVEIERTVAAPSVFIFPPSDEQLKSGTASVVCLLNNFYPREAKVQWKVDNALQSGNSQESVTEQDSKDSTYSLSSTLTLSKADYEKHKVYACEVTHQGLSSPVTKSFNRGEC
notes: as for B1
B5: GpH7-A5/GpH7-B3 variant N325_07I/GpL16-k0 (antibody, human IgG1, kappa)
heavy 1: not shown
heavy 2: not shown
light: DIVMTQSPLSLPVTPGEPASISCQASESLVHSNRNTYLHWYLQKPGQSPQLLIYKVSNRFSGVPDRFSGSGSGTDFTLKISRVEAEDVGVYYCSQNTHVPPTFGQGTKVEIERTVAAPSVFIFPPSDEQLKSGTASVVCLLNNFYPREAKVQWKVDNALQSGNSQESVTEQDSKDSTYSLSSTLTLSKADYEKHKVYACEVTHQGLSSPVTKSFNRGEC
notes: as for B1
B6: GpH7-A5/GpH7-B3 variant L328_09D/GpL16-k0 (antibody, human IgG1, kappa)
heavy 1: not shown
heavy 2: not shown
light: DIVMTQSPLSLPVTPGEPASISCQASESLVHSNRNTYLHWYLQKPGQSPQLLIYKVSNRFSGVPDRFSGSGSGTDFTLKISRVEAEDVGVYYCSQNTHVPPTFGQGTKVEIERTVAAPSVFIFPPSDEQLKSGTASVVCLLNNFYPREAKVQWKVDNALQSGNSQESVTEQDSKDSTYSLSSTLTLSKADYEKHKVYACEVTHQGLSSPVTKSFNRGEC
notes: as for B1
B7: GpH7-A5/GpH7-B3 variant L328_07I/GpL16-k0 (antibody, human IgG1, kappa)
heavy 1: not shown
heavy 2: not shown
light: DIVMTQSPLSLPVTPGEPASISCQASESLVHSNRNTYLHWYLQKPGQSPQLLIYKVSNRFSGVPDRFSGSGSGTDFTLKISRVEAEDVGVYYCSQNTHVPPTFGQGTKVEIERTVAAPSVFIFPPSDEQLKSGTASVVCLLNNFYPREAKVQWKVDNALQSGNSQESVTEQDSKDSTYSLSSTLTLSKADYEKHKVYACEVTHQGLSSPVTKSFNRGEC
notes: as for B1
B8: GpH7-A5/GpH7-B3 variant I332_10E/GpL16-k0 (antibody, human IgG1, kappa)
heavy 1: not shown
heavy 2: not shown
light: DIVMTQSPLSLPVTPGEPASISCQASESLVHSNRNTYLHWYLQKPGQSPQLLIYKVSNRFSGVPDRFSGSGSGTDFTLKISRVEAEDVGVYYCSQNTHVPPTFGQGTKVEIERTVAAPSVFIFPPSDEQLKSGTASVVCLLNNFYPREAKVQWKVDNALQSGNSQESVTEQDSKDSTYSLSSTLTLSKADYEKHKVYACEVTHQGLSSPVTKSFNRGEC
notes: as for B1
B9: GpH7-A5/GpH7-B3 variant I332_09D/GpL16-k0 (antibody, human IgG1, kappa)
heavy 1: not shown
heavy 2: not shown
light: DIVMTQSPLSLPVTPGEPASISCQASESLVHSNRNTYLHWYLQKPGQSPQLLIYKVSNRFSGVPDRFSGSGSGTDFTLKISRVEAEDVGVYYCSQNTHVPPTFGQGTKVEIERTVAAPSVFIFPPSDEQLKSGTASVVCLLNNFYPREAKVQWKVDNALQSGNSQESVTEQDSKDSTYSLSSTLTLSKADYEKHKVYACEVTHQGLSSPVTKSFNRGEC
notes: as for B1
B10: GpH7-A5/GpH7-B3 variant L328_04F/GpL16-k0 (antibody, human IgG1, kappa)
heavy 1: not shown
heavy 2: not shown
light: DIVMTQSPLSLPVTPGEPASISCQASESLVHSNRNTYLHWYLQKPGQSPQLLIYKVSNRFSGVPDRFSGSGSGTDFTLKISRVEAEDVGVYYCSQNTHVPPTFGQGTKVEIERTVAAPSVFIFPPSDEQLKSGTASVVCLLNNFYPREAKVQWKVDNALQSGNSQESVTEQDSKDSTYSLSSTLTLSKADYEKHKVYACEVTHQGLSSPVTKSFNRGEC
notes: as for B1
B11: GpH7-A5/GpH7-B3 variant N325_06M/GpL16-k0 (antibody, human IgG1, kappa)
heavy 1: not shown
heavy 2: not shown
light: DIVMTQSPLSLPVTPGEPASISCQASESLVHSNRNTYLHWYLQKPGQSPQLLIYKVSNRFSGVPDRFSGSGSGTDFTLKISRVEAEDVGVYYCSQNTHVPPTFGQGTKVEIERTVAAPSVFIFPPSDEQLKSGTASVVCLLNNFYPREAKVQWKVDNALQSGNSQESVTEQDSKDSTYSLSSTLTLSKADYEKHKVYACEVTHQGLSSPVTKSFNRGEC
notes: as for B1
B12: GpH7-A5/GpH7-B3 variant L328_20W/GpL16-k0 (antibody, human IgG1, kappa)
heavy 1: not shown
heavy 2: not shown
light: DIVMTQSPLSLPVTPGEPASISCQASESLVHSNRNTYLHWYLQKPGQSPQLLIYKVSNRFSGVPDRFSGSGSGTDFTLKISRVEAEDVGVYYCSQNTHVPPTFGQGTKVEIERTVAAPSVFIFPPSDEQLKSGTASVVCLLNNFYPREAKVQWKVDNALQSGNSQESVTEQDSKDSTYSLSSTLTLSKADYEKHKVYACEVTHQGLSSPVTKSFNRGEC
notes: as for B1
B13: GpH7-A5/GpH7-B3 variant L328_15Y/GpL16-k0 (antibody, human IgG1, kappa)
heavy 1: not shown
heavy 2: not shown
light: DIVMTQSPLSLPVTPGEPASISCQASESLVHSNRNTYLHWYLQKPGQSPQLLIYKVSNRFSGVPDRFSGSGSGTDFTLKISRVEAEDVGVYYCSQNTHVPPTFGQGTKVEIERTVAAPSVFIFPPSDEQLKSGTASVVCLLNNFYPREAKVQWKVDNALQSGNSQESVTEQDSKDSTYSLSSTLTLSKADYEKHKVYACEVTHQGLSSPVTKSFNRGEC
notes: as for B1
B14: GpH7-A5/GpH7-B3 variant L328_13S/GpL16-k0 (antibody, human IgG1, kappa)
heavy 1: not shown
heavy 2: not shown
light: DIVMTQSPLSLPVTPGEPASISCQASESLVHSNRNTYLHWYLQKPGQSPQLLIYKVSNRFSGVPDRFSGSGSGTDFTLKISRVEAEDVGVYYCSQNTHVPPTFGQGTKVEIERTVAAPSVFIFPPSDEQLKSGTASVVCLLNNFYPREAKVQWKVDNALQSGNSQESVTEQDSKDSTYSLSSTLTLSKADYEKHKVYACEVTHQGLSSPVTKSFNRGEC
notes: as for B1
B15: GpH7-A5/GpH7-B3 variant L328_14T/GpL16-k0 (antibody, human IgG1, kappa)
heavy 1: not shown
heavy 2: not shown
light: DIVMTQSPLSLPVTPGEPASISCQASESLVHSNRNTYLHWYLQKPGQSPQLLIYKVSNRFSGVPDRFSGSGSGTDFTLKISRVEAEDVGVYYCSQNTHVPPTFGQGTKVEIERTVAAPSVFIFPPSDEQLKSGTASVVCLLNNFYPREAKVQWKVDNALQSGNSQESVTEQDSKDSTYSLSSTLTLSKADYEKHKVYACEVTHQGLSSPVTKSFNRGEC
notes: as for B1
B16: GpH7-A5/GpH7-B3 variant L328_10E/GpL16-k0 (antibody, human IgG1, kappa)
heavy 1: not shown
heavy 2: not shown
light: DIVMTQSPLSLPVTPGEPASISCQASESLVHSNRNTYLHWYLQKPGQSPQLLIYKVSNRFSGVPDRFSGSGSGTDFTLKISRVEAEDVGVYYCSQNTHVPPTFGQGTKVEIERTVAAPSVFIFPPSDEQLKSGTASVVCLLNNFYPREAKVQWKVDNALQSGNSQESVTEQDSKDSTYSLSSTLTLSKADYEKHKVYACEVTHQGLSSPVTKSFNRGEC
notes: as for B1
B17: GpH7-A5/GpH7-B3 variant L328_02A/GpL16-k0 (antibody, human IgG1, kappa)
heavy 1: not shown
heavy 2: not shown
light: DIVMTQSPLSLPVTPGEPASISCQASESLVHSNRNTYLHWYLQKPGQSPQLLIYKVSNRFSGVPDRFSGSGSGTDFTLKISRVEAEDVGVYYCSQNTHVPPTFGQGTKVEIERTVAAPSVFIFPPSDEQLKSGTASVVCLLNNFYPREAKVQWKVDNALQSGNSQESVTEQDSKDSTYSLSSTLTLSKADYEKHKVYACEVTHQGLSSPVTKSFNRGEC
notes: as for B1

Columns and labels:
[1] = biological target: T2, FcγRIa extracellular domain with C-terminal His tag (human, UniProt P12314 16-292); assay: ratio He/Con_1a : He/Con_2b (FcγRIa over FcγRIIb), SPR (Biacore)
T2 construct: extracellular domain; Soluble receptor used as analyte in Biacore; also called FcgRI
T2 sequence (P12314 16-292): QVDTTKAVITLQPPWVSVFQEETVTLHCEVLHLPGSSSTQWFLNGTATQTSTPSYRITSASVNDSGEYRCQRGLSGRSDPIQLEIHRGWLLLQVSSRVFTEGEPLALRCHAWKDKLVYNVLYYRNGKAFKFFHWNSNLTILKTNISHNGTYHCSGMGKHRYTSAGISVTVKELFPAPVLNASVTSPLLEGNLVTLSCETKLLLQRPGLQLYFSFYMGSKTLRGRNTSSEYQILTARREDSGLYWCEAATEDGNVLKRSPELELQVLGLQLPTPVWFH

[2] = biological target: T2, FcγRIa extracellular domain with …; assay: SPR (Biacore), antibody captured, FcγR as analyte; binding relative to GpH7-A5/GpH7-B3/GpL16-k0 = 100
[3] = biological target: T1, FcγRIIb extracellular domain with …; assay: as above

Binder | He_1a/2b (Ia/IIb) [1] | He/Con_1a [2] | He/Con_2b [3]
B1 | 0.74 | 101 control = 100 | 137 control = 100
B2 | 0.65 | 93.2 control = 100 | 143 control = 100
B3 | 0.7 | 98.7 control = 100 | 142 control = 100
B4 | 0.5 | 97.5 control = 100 | 197 control = 100
B5 | 0.55 | 94.8 control = 100 | 171 control = 100
B6 | 0.51 | 102 control = 100 | 199 control = 100
B7 | 0.62 | 99.4 control = 100 | 160 control = 100
B8 | 0.68 | 96.3 control = 100 | 142 control = 100
B9 | 0.64 | 93.4 control = 100 | 147 control = 100
B10 | 0.45 | 97.9 control = 100 | 219 control = 100
B11 | 0.45 | 97.6 control = 100 | 217 control = 100
B12 | 0.44 | 103 control = 100 | 235 control = 100
B13 | 0.53 | 102 control = 100 | 193 control = 100
B14 | 0.66 | 99 control = 100 | 149 control = 100
B15 | 0.71 | 100 control = 100 | 141 control = 100
B16 | 0.59 | 101 control = 100 | 172 control = 100
B17 | 0.68 | 98.5 control = 100 | 144 control = 100
